Values of other authors, collected in publication PMC8363833.

Legend:
[1] = molecular target: PC1 beta-lactamase (Staphylococcus aureus) (UniProt P00807)
[2] = molecular target: TEM1 beta-lactamase (Escherichia coli) (UniProt P62593)
Chain of UniProt P62593 (P62593 24-286): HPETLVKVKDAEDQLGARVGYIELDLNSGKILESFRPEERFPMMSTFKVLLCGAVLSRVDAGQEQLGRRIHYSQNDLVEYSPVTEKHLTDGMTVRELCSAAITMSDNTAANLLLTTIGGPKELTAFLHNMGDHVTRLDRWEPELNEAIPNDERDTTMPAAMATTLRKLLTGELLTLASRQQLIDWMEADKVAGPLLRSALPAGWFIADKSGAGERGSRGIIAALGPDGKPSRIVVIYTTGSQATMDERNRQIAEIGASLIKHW

Chain of UniProt P00807 (P00807 25-281): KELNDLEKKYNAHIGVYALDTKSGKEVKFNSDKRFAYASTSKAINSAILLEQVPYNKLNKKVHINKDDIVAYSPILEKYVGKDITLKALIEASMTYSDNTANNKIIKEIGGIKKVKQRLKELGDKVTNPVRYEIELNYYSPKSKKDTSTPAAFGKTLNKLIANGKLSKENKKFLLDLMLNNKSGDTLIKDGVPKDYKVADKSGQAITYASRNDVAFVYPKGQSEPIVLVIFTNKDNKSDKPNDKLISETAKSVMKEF

Substance: BLIP (from UniProt P35804)
- Kd [1]: 380 nM
- Kd [2]: 1.3 nM
